{"source": "paper PMC5735850", "about": "(The Plant journal : for cell and molecular biology, 2017)", "molecules": {"B1": {"name": "AtFUT1 (Arabidopsis thaliana; Q452A) (protein)", "chain": "GVFPNVTNINSDKLLGGLLASGFDEDSCLSRYQSVHYRKPSPYKPSSYLISKLRNYEKLHKRCGPGTESYKKALKQLDQEHIDGDGECKYVVWISFSGLGNRILSLASVFLYALLTDRVLLVDRGKDMDDLFCEPFLGMSWLLPLDFPMTDQFDGLNQESSRCYGYMVKNQVIDTEGTLSHLYLHLVHDYGDHDKMFFCEGDQTFIGKVPWLIVKTDNYFVPSLWLIPGFDDELNKLFPQKATVFHHLGRYLFHPTNQVWGLVTRYYEAYLSHADEKIGIQVRVFDEDPGPFQHVMDQISSCTQKEKLLPEVDTLVERSRHVNTPKHKAVLVTSLNAGYAENLKSMYWEYPTSTGEIIGVHQPSQEGYAQTEKKMHNGKALAEMYLLSLTDNLVTSAWSTFGYVAQGLGGLKPWILYRPENRTTPDPSCGRAMSMEPCFHSPPFYDCKAKTGIDTGTLVPHVRHCEDISWGLKLV"}, "B2": {"name": "AtFUT1 (Arabidopsis thaliana) (protein)", "chain": "GVFPNVTNINSDKLLGGLLASGFDEDSCLSRYQSVHYRKPSPYKPSSYLISKLRNYEKLHKRCGPGTESYKKALKQLDQEHIDGDGECKYVVWISFSGLGNRILSLASVFLYALLTDRVLLVDRGKDMDDLFCEPFLGMSWLLPLDFPMTDQFDGLNQESSRCYGYMVKNQVIDTEGTLSHLYLHLVHDYGDHDKMFFCEGDQTFIGKVPWLIVKTDNYFVPSLWLIPGFDDELNKLFPQKATVFHHLGRYLFHPTNQVWGLVTRYYEAYLSHADEKIGIQVRVFDEDPGPFQHVMDQISSCTQKEKLLPEVDTLVERSRHVNTPKHKAVLVTSLNAGYAENLKSMYWEYPTSTGEIIGVHQPSQEGYQQTEKKMHNGKALAEMYLLSLTDNLVTSAWSTFGYVAQGLGGLKPWILYRPENRTTPDPSCGRAMSMEPCFHSPPFYDCKAKTGIDTGTLVPHVRHCEDISWGLKLV"}, "B3": {"name": "AtFUT1 (Arabidopsis thaliana; Y486F) (protein)", "chain": "GVFPNVTNINSDKLLGGLLASGFDEDSCLSRYQSVHYRKPSPYKPSSYLISKLRNYEKLHKRCGPGTESYKKALKQLDQEHIDGDGECKYVVWISFSGLGNRILSLASVFLYALLTDRVLLVDRGKDMDDLFCEPFLGMSWLLPLDFPMTDQFDGLNQESSRCYGYMVKNQVIDTEGTLSHLYLHLVHDYGDHDKMFFCEGDQTFIGKVPWLIVKTDNYFVPSLWLIPGFDDELNKLFPQKATVFHHLGRYLFHPTNQVWGLVTRYYEAYLSHADEKIGIQVRVFDEDPGPFQHVMDQISSCTQKEKLLPEVDTLVERSRHVNTPKHKAVLVTSLNAGYAENLKSMYWEYPTSTGEIIGVHQPSQEGYQQTEKKMHNGKALAEMYLLSLTDNLVTSAWSTFGFVAQGLGGLKPWILYRPENRTTPDPSCGRAMSMEPCFHSPPFYDCKAKTGIDTGTLVPHVRHCEDISWGLKLV"}, "B4": {"name": "AtFUT1 (Arabidopsis thaliana; H523A) (protein)", "chain": "GVFPNVTNINSDKLLGGLLASGFDEDSCLSRYQSVHYRKPSPYKPSSYLISKLRNYEKLHKRCGPGTESYKKALKQLDQEHIDGDGECKYVVWISFSGLGNRILSLASVFLYALLTDRVLLVDRGKDMDDLFCEPFLGMSWLLPLDFPMTDQFDGLNQESSRCYGYMVKNQVIDTEGTLSHLYLHLVHDYGDHDKMFFCEGDQTFIGKVPWLIVKTDNYFVPSLWLIPGFDDELNKLFPQKATVFHHLGRYLFHPTNQVWGLVTRYYEAYLSHADEKIGIQVRVFDEDPGPFQHVMDQISSCTQKEKLLPEVDTLVERSRHVNTPKHKAVLVTSLNAGYAENLKSMYWEYPTSTGEIIGVHQPSQEGYQQTEKKMHNGKALAEMYLLSLTDNLVTSAWSTFGYVAQGLGGLKPWILYRPENRTTPDPSCGRAMSMEPCFASPPFYDCKAKTGIDTGTLVPHVRHCEDISWGLKLV"}, "B5": {"name": "AtFUT1 (Arabidopsis thaliana; D300A) (protein)", "chain": "GVFPNVTNINSDKLLGGLLASGFDEDSCLSRYQSVHYRKPSPYKPSSYLISKLRNYEKLHKRCGPGTESYKKALKQLDQEHIDGDGECKYVVWISFSGLGNRILSLASVFLYALLTDRVLLVDRGKDMDDLFCEPFLGMSWLLPLDFPMTDQFDGLNQESSRCYGYMVKNQVIDTEGTLSHLYLHLVHDYGDHDKMFFCEGDQTFIGKVPWLIVKTANYFVPSLWLIPGFDDELNKLFPQKATVFHHLGRYLFHPTNQVWGLVTRYYEAYLSHADEKIGIQVRVFDEDPGPFQHVMDQISSCTQKEKLLPEVDTLVERSRHVNTPKHKAVLVTSLNAGYAENLKSMYWEYPTSTGEIIGVHQPSQEGYQQTEKKMHNGKALAEMYLLSLTDNLVTSAWSTFGYVAQGLGGLKPWILYRPENRTTPDPSCGRAMSMEPCFHSPPFYDCKAKTGIDTGTLVPHVRHCEDISWGLKLV"}, "B6": {"name": "AtFUT1 (Arabidopsis thaliana; D550A) (protein)", "chain": "GVFPNVTNINSDKLLGGLLASGFDEDSCLSRYQSVHYRKPSPYKPSSYLISKLRNYEKLHKRCGPGTESYKKALKQLDQEHIDGDGECKYVVWISFSGLGNRILSLASVFLYALLTDRVLLVDRGKDMDDLFCEPFLGMSWLLPLDFPMTDQFDGLNQESSRCYGYMVKNQVIDTEGTLSHLYLHLVHDYGDHDKMFFCEGDQTFIGKVPWLIVKTDNYFVPSLWLIPGFDDELNKLFPQKATVFHHLGRYLFHPTNQVWGLVTRYYEAYLSHADEKIGIQVRVFDEDPGPFQHVMDQISSCTQKEKLLPEVDTLVERSRHVNTPKHKAVLVTSLNAGYAENLKSMYWEYPTSTGEIIGVHQPSQEGYQQTEKKMHNGKALAEMYLLSLTDNLVTSAWSTFGYVAQGLGGLKPWILYRPENRTTPDPSCGRAMSMEPCFHSPPFYDCKAKTGIDTGTLVPHVRHCEAISWGLKLV"}}, "data": [{"substrate": "C[C@@H]1O[C@H](OP(=O)(O)OP(=O)(O)OC[C@H]2O[C@@H](n3cnc4c(=O)[nH]c(N)nc43)[C@H](O)[C@@H]2O)[C@@H](O)[C@H](O)[C@@H]1O", "test": "GDP-Glo luminescent GDP release, Michaelis-Menten fit", "type": "biochemical, Arabidopsis thaliana", "settings": "donor varied, 750 μM XXLG, 75 mM HEPES pH 6.8, 28°C", "units": {"kcat": "s⁻¹"}, "values": [{"molecule": "B1", "Km": "61.77 (±10.5) μM", "kcat": "0.00533 ± 0.000283"}, {"molecule": "B2", "Km": "25.32 (±4.2) μM", "kcat": "0.0633 ± 0.000833"}, {"molecule": "B3", "Km": "60.44 (±12.3) μM", "kcat": "0.0016 ± 0.0001"}, {"molecule": "B4", "Km": "84.28 (±18.3) μM", "kcat": "0.00123 ± 8.33e-05"}, {"molecule": "B5", "Km": "40.1 (±7.5) μM", "kcat": "0.00532 ± 0.000267"}, {"molecule": "B6", "Km": "55.33 (±6.7) μM", "kcat": "0.00343 ± 0.000167"}]}, {"molecular_target": "T1, AtFUT1 (Arabidopsis thaliana, UniProt Q9SWH5)", "T1 sequence (Q9SWH5 84-558 limits assumed)": "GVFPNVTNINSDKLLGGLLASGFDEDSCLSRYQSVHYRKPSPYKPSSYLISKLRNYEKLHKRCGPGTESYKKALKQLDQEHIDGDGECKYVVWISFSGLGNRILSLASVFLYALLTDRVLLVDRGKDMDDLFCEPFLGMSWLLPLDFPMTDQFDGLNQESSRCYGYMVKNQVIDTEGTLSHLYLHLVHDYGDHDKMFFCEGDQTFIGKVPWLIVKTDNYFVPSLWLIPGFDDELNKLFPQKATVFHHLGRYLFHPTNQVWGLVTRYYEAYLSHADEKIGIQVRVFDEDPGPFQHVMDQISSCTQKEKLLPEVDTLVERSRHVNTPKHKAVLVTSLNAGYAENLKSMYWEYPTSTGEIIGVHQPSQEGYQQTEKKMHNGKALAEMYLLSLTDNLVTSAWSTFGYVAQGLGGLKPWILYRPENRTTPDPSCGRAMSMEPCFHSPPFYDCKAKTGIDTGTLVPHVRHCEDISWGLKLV", "test": "real-time 1H NMR of fucosylation", "type": "biochemical", "settings": "0.4 mM XLLG, 0.4 mM GDP-Fuc, 4.7 μM enzyme, pH 6.8 in D2O, 25°C", "values": [{"molecule": "OC[C@H]1O[C@@H](O[C@H]2[C@@H](OC[C@H]3O[C@@H](O[C@H]4[C@H](O)[C@@H](O)[C@H](O[C@H]5[C@H](O)[C@@H](O)C(O)O[C@@H]5CO)O[C@@H]4CO[C@H]4OC[C@@H](O)[C@H](O)[C@H]4O[C@@H]4O[C@H](CO)[C@H](O)[C@H](O)[C@H]4O)[C@H](O)[C@@H](O)[C@@H]3O[C@@H]3O[C@H](CO[C@H]4OC[C@@H](O)[C@H](O)[C@H]4O)[C@@H](O)[C@H](O)[C@H]3O)OC[C@@H](O)[C@@H]2O)[C@H](O)[C@@H](O)[C@H]1O", "note": "(stereo partly shown) [XLLG]", "real-time 1H NMR of fucosylation": "The xyloglucan oligosaccharide XLLG (Figure 1a), composed of nine glycosyl residues"}]}]}
